{"source": "paper PMC9539805", "origin": "cited, not measured here", "key": {"[1]": {"biological_target": "spike protein (SARS-CoV-2) (UniProt P0DTC2)"}, "[2]": {"biological_target": "spike protein RBD (SARS-CoV-2) (UniProt P0DTC2)"}}, "data": [{"substance": "CV-N (from UniProt P81180)", "values": [{"measurement": "Kd", "setting": "[1]", "value": 18.6, "unit": "µM"}, {"measurement": "Kd", "setting": "[2]", "value": 260, "unit": "µM"}]}]}
